Data on 30 sequences can be found in the nanobody polyreactivity screen of Harvey et al. (2022).

The nature of this series: yeast display, Sf9 membrane polyspecificity reagent, FACS + sequencing; frameworks hold sequencing errors. In outline: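 Genes from sorted yeast were amplified by colony PCR, read by MiSeq 2 × 250 sequencing and filtered on CDR length. These cells carried a synthetic nanobody library in Saccharomyces cerevisiae BJ5465 and were sorted by FACS into low and high (top ~1%) gates on anti-HA and streptavidin fluorescence. Polyreactivity is labelled according to the gate of origin.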
Take “QVQIVESGGGLVQPGGSLRLSCAASGSTFTRNAMGWYRQAPGKERELVAAISFSGGSTYYADSVKGRFTISRDTAKNTVYLQMNSLKPEDTAVYYCAAEEGRVFSGGYDYWGQGTQVTVSS”: the “polyreactivity (PSR sort gate)” value is “high polyreactivity”. With “QVQLVESGGGLVQAGGSLRLSCAASGNTFPFNAMGWYRQAPGKERELVAAISRGGSTYYADSVKGRFTISRDNAKNTVYLQMISLKPEDTAVYYCAVSAGKRRLDYWGQGTQVTVSS” the entry was “high polyreactivity”. With “QVQLVESGGGLVQAGGSLRLSCAASGGIFTRNDMGWYRQAPGKERELVAGISWRGGSTYYADSVKGRFTISRDNAKNTVYLQMNSLKPEDTAVYYCAADLDSDFDYWGQGTQVTVSS”, the “polyreactivity (PSR sort gate)” value is recorded as “low polyreactivity”. For “QVQLVDSGGCLVQAGGSLRLSCASSGRIIAHYAMGWYRQSPGKESELVAAISTRGGSTYYADSVKGRFTISRDNEKNTVYLQMNSLKPEDTAVYYCAAKSNNIATMDYWGQGTQVTVSS”, the “polyreactivity (PSR sort gate)” value is on record as “low polyreactivity”. For the sequence “QVQLVESGGGLVQAGGSLRLSCAASGFIFSYYAMGWYRQAPGKERELLAAISRNGGRTYYADSVKGRFTISRDNAKNTVYLQMNSLKPEDTAVYYCAATTYRTSSYIRYGSPKHDDYWGQGTQVTVSS”, the “polyreactivity (PSR sort gate)” value is on record as “high polyreactivity”. With “QVQLVESGGGIVQAGGSLRLICAASVITLVLYAMVWYRQAPGKERELLAAISSSGGSTYYADSVKGRFTISRDNAKNTVYLQMTSLKPEDTAVYYCNVTPDWNARRPFDYWGQGTQVTVSS” the entry was “high polyreactivity”.

Turning to “QVQLVESGGGLLQAGGSLRLSCASSGSTFYTNDMGWYRPAPGKERELVAAITSAGNTNYADSVKGRFTISRDNAKNTVYLQMNSLKPEDTAVYYYYYYQYDYWGQGTQVTVSS”, the “polyreactivity (PSR sort gate)” value is “low polyreactivity”. Next, “QVQLVESGGGLVEAAGSLRLSCAASGRILCGNTMGWYRQATGKERELFAAISWNGGGTYYADSVKGRFTISRDTAKNNVYLQMNSLTPEDTAVYYCATRYTYSTDTGYDYWGQGTQVTVSS”: “low polyreactivity”. As to “QVQLVESGGGLVQAGGSLRLSCAASGFTLFYNAMGWYRQAPGKERELVAAITARGGGTYYADSVKGRFTISRDNAKNTVYLQMNSLKPEDTAVYYCNAGQNQRVDRTDPYDYWGQGTQVTVSS”, the “polyreactivity (PSR sort gate)” value is given as “low polyreactivity”. In the case of “QVQLVDTGGGLVQAGGSLRLICAASGSIFKIYAMGWYRQAPGKERELVAAISSSGGSTYYADSVKGRFTISRDNAKNTVYLQMNCLKPEDTAVYYCAAGQSWRKNAYRYDYWGQGTQVTVSS”, the “polyreactivity (PSR sort gate)” value is listed as “high polyreactivity”.

“QVQLVESGGGLVQAGGSLRLSCAASGRIFRYYAMGWYRQAPGKERELVAAISKSGGSTYYADSVKGRFTISRDNAKNTVYFQMNSLKPEDTGVYYCNARSRLGGLYEYWGQGTQVTVSS”: the “polyreactivity (PSR sort gate)” value is “high polyreactivity”. As to “QVQLVESGGGLVQAGGSLRLSCAASGSIFRPNAMGWYRQAPGTEREFVASISGRVGSTYYADSVKGRFTISRDNAKNTVYLQMNSLKPEDTAVYYCAADSRGGYKRNYWGQGTQVTVSS”, the “polyreactivity (PSR sort gate)” value was “high polyreactivity”.

In the case of “QVQLVESGGGLVQAGGSLRLSCAASGLTFYSYARGWYRQAPGKERELVATISGGGSTTYADSVKGRFTISRDNAKNTVYLQMNSLKPEDTAVYYCAAGYFLPVVWSTTNYIYDYWGQGTQVTVSS”, the “polyreactivity (PSR sort gate)” value is “high polyreactivity”. With “QVQLVESGGGLVQAGGSLRLSCAASGRISIWYDMGWYRQAPGKERELVASITSGGSTYADSVKGRFTISRDNAKNTVYLQMNSLKPEDTAVYYCAADEAPYGTSEQRHSRFSHWGQGTQVTVSS” the entry was “low polyreactivity”.

With “QVQLVESGGGLVQAGGSLRLSCAASGFTFPYYAMGWYRQALGKERELVAGISRGGSTYYADSVKGRFTISRDNAKNTVYLQMNSLKPEDTAVYYCAADRYIGQYTYYYWGQGTQVTVSS”, the “polyreactivity (PSR sort gate)” value is given as “high polyreactivity”. Next, “QVQLVESGGGLVQAGGSLRLSCASSGSTFYYYAMGWYRPAPGKERELVAAITKSGGSTYYADSVKGRFTISRDNAKNTVYLQMNSLKPEVTAVYYCAAYLRSGYKFDYWGQGTQVTVSS”: “low polyreactivity”. In the case of “QVQLVESGGGLVQAGGSLRLSCAASGNTFDPNAMGWYRQAPGKEREFVAAISTIGSSTYYADSVKGRFTISRDNAKNTVYLQMNSLKPEDTAVYYSNADYFQDRLDYWGQGTQVTVSS”, the “polyreactivity (PSR sort gate)” value is reported as “low polyreactivity”. Regarding “QVQLVESGGGLVQAGGSLRLSCAASGRTSPAYAMGWYRQAPGKERELVAAISRSGGRTNYADSVKGRFTISRDNAKNTVYLQMNSLKPEDTAVYYCAVPYWYLGDNSGHDPYYYWGQGTQVTVSS”, the “polyreactivity (PSR sort gate)” value is on record as “high polyreactivity”. Next, “QVQLVESGGGLVQAGGSLRLSCAASGSTFTTNAMGWYIQAPGKERELVASITWSGGGTNYADSVKGRFTISRDNAKNTVYLQMNSLKPEDTAVYYCAADYDDSHLRSDYWGQGTQVTVSS”: “low polyreactivity”; “QVQLVESGGGLVQAGGSLRLSCAASGFIFGYYAMGWYRQAPGKERELVAPIKYNDDSTYYADSVKARFTISRDNAKNTVYLQMNSLKPEDTAVYYCAASRFWPGNSYYYRYYYWGQGTQVTVSS”: “low polyreactivity”. Next, “QVQLVESGGGLVQAGGSLRLSCAASGFIFKRYSMGWYRQAPGKERELVAAITSGGSTHYADSVKGRFTISRDNAKNTVYLQMNSLKPEDTAVYYCATRRYKWGVRYDYWGQGTQVTVSS”: “high polyreactivity”; “QVQLVESGGGLVQAGGSLRLSCAASGFIFYTYAMGWYRQAPGKERELVAGINSGGDTNYADSVKGRFTISRDNAKNTVYLQINSLKPEDTAVYYCAATSYVHKYYGYFGAIKYEYWGHGTQVTVSS”: “low polyreactivity”. On to “QVQLVESGGGLVQAGGSLRLSCAASGSIYKYYAMGWYRQAPGKERELVAALTIGGITNYADSVKGGFTISRDNATNTVYLQMTSLKPEDPAVYYCATGVYYSAIVYGGYDYWGQGTQVTVSS”, for which the “polyreactivity (PSR sort gate)” value was “low polyreactivity”.

Regarding “QVQLVESGGGLVQAGGSLRLICAASGRIFPGYTMGWYRQAPGKEREFFAAISYSGGSTYADSVKGRFTISRDNAKNTVYLQMNSLKPEDTAVYYCAVVLQHWLDMYYWGQVTQVTVSS”, the “polyreactivity (PSR sort gate)” value is “low polyreactivity”. With “QVQLVESGGGLVQAGGSLRLSCAASGITFIRYAMGWYTQAPGKERELVAAIDRSGGSTYYADSVKGRFTISRDTAKNTVYLQMNSLKPEDTAVYYCAARRVRGLDYWGQGTQVTVSS” the entry was “high polyreactivity”; with “QVQLVESGGGLVQAGGSLRLTCAASGRILGRNAMGWYRQAPGKEREFVAGISYSGTSTYYADSVKGRFTISRDNAKNTVYLQMNSLKPEDTAVYYCNVKNQVYRRYYYWGQGTQVTVSS”, “high polyreactivity”; with “QVQLVESGGGLVQAGGSLRLSCAASGGTILYYAMGWYRQAPGKEMELVAAISRGGSTHYADSVKWRFTISRDNAKNTVYLQMNRLKPEDTAVFYCAVDGGEFSSYGYWGHGTQVTVSS”, “low polyreactivity”. With “QGQLVETGGGLGQAGGSLRLSCAASGRIFPTNAMGWSRPAPGKERELVAAIPVSGGSTFYADSVKGRFTISRDNAKNTVYLQLNSLKPDDTAVDDCAVDDRASVGSRLDHWGQGTQVTVSS” the entry was “low polyreactivity”; with “QVQLVESGGGLVQAGGSLSLICAASGLIFKYNDMGWYRQAPGKERELVAAISTSGGSTYYADSVKGRFTISRDNAKNTVYLQMNSLKPEDTAVYYCNARRQRNKSYNYWGQGTQVTVSS”, “high polyreactivity”. Turning to “QVQLVESGGGLVQAGGSLRLSCAASGIIFTKYVMGWYRQAPGKERELVAAINTDGGSTRYADSVKGRFTISRDNAKNTVYLQMNSLKPEDTAVYYCAAVSSRRPGYEYYYWGQGTQVTVSS”, the “polyreactivity (PSR sort gate)” value was “high polyreactivity”.
